Here are results for 1 molecule from patent publication US20120210456A1 (MENDEL BIOTECHNOLOGY, published 2012).

This assay concerns the target T1, SALT TOLERANCE HOMOLOG2 (STH2) (Arabidopsis thaliana, UniProt Q9LQZ7 1-331, limits assumed).
T1 construct: also called G1482
T1 sequence: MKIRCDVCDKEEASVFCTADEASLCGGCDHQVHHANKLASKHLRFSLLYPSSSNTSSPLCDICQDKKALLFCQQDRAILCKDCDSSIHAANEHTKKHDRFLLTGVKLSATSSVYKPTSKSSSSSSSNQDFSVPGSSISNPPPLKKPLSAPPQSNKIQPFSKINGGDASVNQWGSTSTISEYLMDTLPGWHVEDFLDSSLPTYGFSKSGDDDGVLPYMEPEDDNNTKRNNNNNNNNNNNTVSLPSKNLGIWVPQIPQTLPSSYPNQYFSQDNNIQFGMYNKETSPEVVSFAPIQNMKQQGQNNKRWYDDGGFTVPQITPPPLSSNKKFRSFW
The assay can be described thus: in vitro and protoplast based studies (methods not described).

B1: G1988 (other)
chain: MVSFCELCGAEADLHCAADSAFLCRSCDAKFHASNFLFARHFRRVICPNCKSLTQNFVSGPLLPWPPRTTCCSESSSSSCCSSLDCVSSSELSSTTRDVNRARGRENRVNAKAVAVTVADGIFVNWCGKLGLNRDLTNAVVSYASLALAVETRPRATKRVFLAAAFWFGVKNTTTWQNLKKVEDVTGVSAGMIRAVESKLARAMTQQLRRWRVDSEEGWAENDNV
notes: also called B-box zinc finger transcription factor G1988
Consider B1, for which the binding result was “binds”.
